# Measurements reported in PMC6338969, “Aptamer Conformation Switching-Induced Two-Stage Amplification for Fluorescent Detection of Proteins”.
# B1: Control DNA aptamer (ssDNA)
# DNA: TGCACCTCAGCATTTCCGTGGTAGGGCAGGTTGGGGTGATTTCTATTCAATCCGAGCAGGAACG
# B2: PDGF-BB DNA aptamer (switch) (structured_DNA)
# DNA: TGCACCTCAGCAGCAGGCTACGGCACGTAGAGCATCACCATGATCCTGCATCCGAGCAGGAACG
# How the values were obtained:
# PDGF-BB = PDGF-BB (UniProt P01127 82-190); assay: molecular beacon fluorescence with amplification; 1.0 ug/mL PDGF-BB; Aptamer + protein 15 min at 37 °C, then NEB buffer (pH 7.9) with Klenow exo- buffer, 37 °C, 2 h; 1 uM aptamer, 1 uM beacon, 2.5 uM primer, 2 mM dNTPs, Klenow exo- and Nt.BbvCI 1 U/uL each; salt not stated; settings: protein: commercial; chain copies: 2
# PDGF-BB, sequence (P01127 82-190): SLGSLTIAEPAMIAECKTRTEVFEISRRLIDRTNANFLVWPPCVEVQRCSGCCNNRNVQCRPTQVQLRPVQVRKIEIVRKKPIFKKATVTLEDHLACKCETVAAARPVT
# [1] = molecular target: carcino-embryonic antigen (CEA) (UniProt P06731 35-685); assay: molecular beacon fluorescence with amplification; 0.1 mg/mL CEA; Aptamer + protein 15 min at 37 °C, then NEB buffer (pH 7.9) with Klenow exo- buffer, 37 °C, 2 h; 1 uM aptamer, 1 uM beacon, 2.5 uM primer, 2 mM dNTPs, Klenow exo- and Nt.BbvCI 1 U/uL each; salt not stated; settings: protein: commercial; Y-shaped complex with target
# carcino-embryonic antigen (CEA), sequence (P06731 35-685): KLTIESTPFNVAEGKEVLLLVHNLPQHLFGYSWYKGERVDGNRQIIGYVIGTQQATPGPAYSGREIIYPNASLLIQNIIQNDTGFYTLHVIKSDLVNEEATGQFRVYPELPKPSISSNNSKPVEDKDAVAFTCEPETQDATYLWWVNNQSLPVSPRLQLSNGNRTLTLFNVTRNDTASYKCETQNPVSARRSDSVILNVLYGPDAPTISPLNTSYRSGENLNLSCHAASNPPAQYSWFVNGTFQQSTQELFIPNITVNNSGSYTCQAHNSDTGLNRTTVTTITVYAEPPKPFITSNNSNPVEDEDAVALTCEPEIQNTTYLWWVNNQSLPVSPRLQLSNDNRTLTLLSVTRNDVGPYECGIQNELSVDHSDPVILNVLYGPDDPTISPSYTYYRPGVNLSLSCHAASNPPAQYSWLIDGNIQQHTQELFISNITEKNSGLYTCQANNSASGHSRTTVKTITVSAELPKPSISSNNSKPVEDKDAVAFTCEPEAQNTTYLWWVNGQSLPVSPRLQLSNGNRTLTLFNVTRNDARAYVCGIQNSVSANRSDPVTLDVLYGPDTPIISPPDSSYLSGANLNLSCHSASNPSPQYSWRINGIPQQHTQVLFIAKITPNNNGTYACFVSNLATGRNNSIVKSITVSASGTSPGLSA
# [2] = molecular target: prostate-specific antigen (PSA) (UniProt P07288 25-261); assay: molecular beacon fluorescence with amplification; 0.1 mg/mL PSA; Aptamer + protein 15 min at 37 °C, then NEB buffer (pH 7.9) with Klenow exo- buffer, 37 °C, 2 h; 1 uM aptamer, 1 uM beacon, 2.5 uM primer, 2 mM dNTPs, Klenow exo- and Nt.BbvCI 1 U/uL each; salt not stated; settings: protein: commercial; Y-shaped complex with target
# prostate-specific antigen (PSA), sequence (P07288 25-261): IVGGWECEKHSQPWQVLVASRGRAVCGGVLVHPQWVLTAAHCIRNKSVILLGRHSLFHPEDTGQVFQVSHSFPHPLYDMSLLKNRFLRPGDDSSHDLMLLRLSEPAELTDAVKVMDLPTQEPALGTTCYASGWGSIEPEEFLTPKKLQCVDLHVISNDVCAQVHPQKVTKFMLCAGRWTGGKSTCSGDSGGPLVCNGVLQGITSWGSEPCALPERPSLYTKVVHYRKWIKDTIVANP
Binder,binding result (PDGF-BB),binding result [1],binding result [2]
B1,no binding,,
B2,,no binding,no binding
